Test results published in patent US20060040855A1 (published 2006).
Changes are numbered by the printed parent chain. One block for each binder: values may come before it.

Target: rat LH receptor (rat, UniProt P16235)
Experiment: cell-based or functional assay

- Efficacy, cyclic AMP accumulation: 36%
B1: dgα5-β8 (dg-αQ5C/hCGβR8C) (ligand)
chain 1: not shown
chain 2: SKEPLRPCCRPINATLAVEKEGCPVCITVNTTICAGYCPTMTRVLQGVLPALPQVVCNYRDVRFESIRLPGCPRGVNPVVSYAVALSCQCALCRRSTTDCGGPKDHPLTCDDPRFQDSSSSKAPPPSLPSPSRLPGPSDTPILPQ

- Efficacy, cyclic AMP accumulation: 14%
B2: dgα27-β44 (dg-αQ27C/hCGβV44C) (ligand)
chain 1: not shown
chain 2: B1 chain 2 with C8R, V44C

- Efficacy, cyclic AMP accumulation: 34%
B3: dgα76-β44 (dg-αV76C/hCGβV44C) (ligand)
chain 1: not shown
chain 2: B1 chain 2 with C8R, V44C
